# Patent US11932673 (IONTAS, dated 2024)
# B1: KB_A12 (scFv, V domains shown)
# VH: EVQLVESGGGLVRPGGSLRLSCAASGFTFSSYAMSWVRQAPGKGLEWVSAISGSGGSTYYADSVKGRFTISRDNTKNSLYLQMTSLRADDTAFYYCVKDFGPGYGTGWFDYWGPGTLVTVSS
# VL: AVNWYQQLPGKAPKLLIYAAGRCPRILMRCKQDSDCLAGCVCGPNGFCGANSGVSDRFSAAKSGTSASLAINGLRSEDEADYYCAAWDDSLNGYVFGTGTKLTVLG
# B2: KB_A07 MoKa-1 (antibody, V domains shown)
# VH: B1 VH
# VL: DIQMTQSPSSLSASVGDRVTITCRASQSISSYLNWYQQKPGKAPKLLIYAAGVINVKCSLPQQCIKPCKDAGMRFGKCMNKKCRCYSSRSGVPSRFSGSGSGTDFTLTISSLQPEDFATYYCQQGASPPYTFGQGTKVEIKR
# B3: KB_A12 Kaliotoxin (antibody, V domains shown)
# VH: B1 VH
# VL: QSVLTQPPSVSEAPRQRVTITCSGSSSNIGNNAVNWYQQLPGKAPKLLIYAAGRGVEINVKCSGSPQCLKPCKDAGMRFGKCMNRKCHCTPKANSGVSDRFSAAKSGTSASLAINGLRSEDEADYYCAAWDDSLNGYVFGTGTKLTVLG
# B4: KB_A12 MoKa-1 (antibody, V domains shown)
# VH: B1 VH
# VL: QSVLTQPPSVSEAPRQRVTITCSGSSSNIGNNAVNWYQQLPGKAPKLLIYAAGRINVKCSLPQQCIKPCKDAGMRFGKCMNKKCRCYSANSGVSDRFSAAKSGTSASLAINGLRSEDEADYYCAAWDDSLNGYVFGTGTKLTVLG
# B5: KB_A07 (scFv, V domains shown)
# VH: B1 VH
# VL: YLNWYQQKPGKAPKLLIYAAGVCPRILMRCKQDSDCLAGCVCGPNGFCGSRSGVPSRFSGSGSGTDFTLTISSLQPEDFATYYCQQGASPPYTFGQGTKVEIKR
# B6: KB_A07 Shk (antibody, V domains shown)
# VH: B1 VH
# VL: NWYQQKPGKAPKLLIYAAGVRSCIDTIPKSRCTAFQCKHSMKYRLSFCRKTCGTCSRSGVPSRFSGSGSGTDFTLTISSLQPEDFATYYCQQGASPPYTFGQGTKVEIKR
# B7: KB_A07 Kaliotoxin (antibody, V domains shown)
# VH: B1 VH
# VL: DIQMTQSPSSLSASVGDRVTITCRASQSISSYLNWYQQKPGKAPKLLIYAAGVGVEINVKCSGSPQCLKPCKDAGMRFGKCMNRKCHCTPKSRSGVPSRFSGSGSGTDFTLTISSLQPEDFATYYCQQGASPPYTFGQGTKVEIKR
# B8: KB_A12 Shk (antibody, V domains shown)
# VH: B1 VH
# VL: NWYQQLPGKAPKLLIYAAGRRSCIDTIPKSRCTAFQCKHSMKYRLSFCRKTCGTCANSGVSDRFSAAKSGTSASLAINGLRSEDEADYYCAAWDDSLNGYVFGTGTKLTVLG
# B9: KB_A12_ProTx-III 2M 2Gly (antibody, V domains shown)
# VH: B1 VH
# VL: VNWYQQLPGKAPKLLIYAAGRGCLKFGWKCNPRNDKCCSGLKCGSNHNWCKWHIGGANSGVSDRFSAAKSGTSASLAINGLRSEDEADYYCAAWDDSLNGYVFGTGTKLTVLG
# B10: KB_A12_ProTx-III 2M Gly (antibody, V domains shown)
# VH: B1 VH
# VL: VNWYQQLPGKAPKLLIYAAGRGCLKFGWKCNPRNDKCCSGLKCGSNHNWCKWHIGANSGVSDRFSAAKSGTSASLAINGLRSEDEADYYCAAWDDSLNGYVFGTGTKLTVLG
# B11: KB_A07_ProTx-III 2M Gly (antibody, V domains shown)
# VH: B1 VH
# VL: […]
# Target: T1, human Nav1.7 (human, UniProt Q15858 1-1988)
# T1 sequence (Q15858 whole entry): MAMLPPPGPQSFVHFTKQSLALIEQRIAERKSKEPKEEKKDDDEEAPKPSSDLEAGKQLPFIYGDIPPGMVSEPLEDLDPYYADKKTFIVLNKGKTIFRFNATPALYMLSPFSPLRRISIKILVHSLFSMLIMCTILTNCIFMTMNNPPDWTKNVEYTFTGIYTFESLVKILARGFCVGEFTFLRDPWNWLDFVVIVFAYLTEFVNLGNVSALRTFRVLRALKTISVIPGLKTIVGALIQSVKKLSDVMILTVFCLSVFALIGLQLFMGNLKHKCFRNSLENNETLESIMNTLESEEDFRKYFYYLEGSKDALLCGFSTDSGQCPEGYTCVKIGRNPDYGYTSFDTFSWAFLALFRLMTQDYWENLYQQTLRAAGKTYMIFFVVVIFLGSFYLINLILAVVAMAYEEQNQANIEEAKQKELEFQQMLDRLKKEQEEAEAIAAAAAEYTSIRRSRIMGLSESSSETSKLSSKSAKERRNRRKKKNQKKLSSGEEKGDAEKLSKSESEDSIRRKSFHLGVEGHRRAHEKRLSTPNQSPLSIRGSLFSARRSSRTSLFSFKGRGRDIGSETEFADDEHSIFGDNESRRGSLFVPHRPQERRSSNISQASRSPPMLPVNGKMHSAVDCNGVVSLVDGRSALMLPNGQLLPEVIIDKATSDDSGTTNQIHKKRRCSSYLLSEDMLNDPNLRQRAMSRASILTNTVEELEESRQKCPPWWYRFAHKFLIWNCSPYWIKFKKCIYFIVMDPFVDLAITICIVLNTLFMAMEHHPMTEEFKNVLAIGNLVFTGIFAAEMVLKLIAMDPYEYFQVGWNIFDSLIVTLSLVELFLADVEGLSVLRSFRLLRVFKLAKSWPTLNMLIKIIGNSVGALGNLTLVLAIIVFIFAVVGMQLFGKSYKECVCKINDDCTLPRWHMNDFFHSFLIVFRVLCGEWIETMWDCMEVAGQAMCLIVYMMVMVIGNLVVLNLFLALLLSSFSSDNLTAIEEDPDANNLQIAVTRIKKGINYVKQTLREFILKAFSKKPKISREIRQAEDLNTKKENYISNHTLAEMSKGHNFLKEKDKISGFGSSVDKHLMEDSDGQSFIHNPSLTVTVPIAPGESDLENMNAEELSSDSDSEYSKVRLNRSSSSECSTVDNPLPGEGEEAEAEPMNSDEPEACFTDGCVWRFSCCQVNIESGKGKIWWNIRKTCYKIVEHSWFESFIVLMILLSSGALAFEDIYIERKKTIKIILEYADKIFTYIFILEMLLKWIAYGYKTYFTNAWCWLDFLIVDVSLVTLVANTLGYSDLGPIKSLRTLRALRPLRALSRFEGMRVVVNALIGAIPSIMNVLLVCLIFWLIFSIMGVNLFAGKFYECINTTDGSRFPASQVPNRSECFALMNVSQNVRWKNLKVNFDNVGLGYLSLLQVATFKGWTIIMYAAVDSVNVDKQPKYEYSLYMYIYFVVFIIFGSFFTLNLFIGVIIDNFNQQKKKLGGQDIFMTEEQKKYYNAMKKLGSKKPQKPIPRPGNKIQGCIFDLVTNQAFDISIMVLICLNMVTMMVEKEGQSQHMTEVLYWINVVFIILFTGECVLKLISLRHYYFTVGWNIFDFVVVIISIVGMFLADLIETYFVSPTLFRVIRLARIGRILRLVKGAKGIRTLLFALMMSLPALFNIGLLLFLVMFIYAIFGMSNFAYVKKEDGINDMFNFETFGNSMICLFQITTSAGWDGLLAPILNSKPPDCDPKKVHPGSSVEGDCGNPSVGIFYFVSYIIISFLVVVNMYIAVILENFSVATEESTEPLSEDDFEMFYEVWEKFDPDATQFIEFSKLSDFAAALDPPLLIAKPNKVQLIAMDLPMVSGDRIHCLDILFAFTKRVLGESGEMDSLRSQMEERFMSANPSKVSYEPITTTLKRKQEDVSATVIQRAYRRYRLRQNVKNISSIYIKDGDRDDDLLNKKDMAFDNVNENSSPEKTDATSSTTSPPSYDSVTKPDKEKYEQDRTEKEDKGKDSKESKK
# Assay: cell-based or functional assay
row,Binder,IC50 of inhibition of Nav1.7 currents (extrapolated; IgG isotype control)
1,B1,> 100000 nM

# Target: T2, human Kv 1.3 (human, UniProt P22001 1-575)
# T2 sequence (P22001 whole entry): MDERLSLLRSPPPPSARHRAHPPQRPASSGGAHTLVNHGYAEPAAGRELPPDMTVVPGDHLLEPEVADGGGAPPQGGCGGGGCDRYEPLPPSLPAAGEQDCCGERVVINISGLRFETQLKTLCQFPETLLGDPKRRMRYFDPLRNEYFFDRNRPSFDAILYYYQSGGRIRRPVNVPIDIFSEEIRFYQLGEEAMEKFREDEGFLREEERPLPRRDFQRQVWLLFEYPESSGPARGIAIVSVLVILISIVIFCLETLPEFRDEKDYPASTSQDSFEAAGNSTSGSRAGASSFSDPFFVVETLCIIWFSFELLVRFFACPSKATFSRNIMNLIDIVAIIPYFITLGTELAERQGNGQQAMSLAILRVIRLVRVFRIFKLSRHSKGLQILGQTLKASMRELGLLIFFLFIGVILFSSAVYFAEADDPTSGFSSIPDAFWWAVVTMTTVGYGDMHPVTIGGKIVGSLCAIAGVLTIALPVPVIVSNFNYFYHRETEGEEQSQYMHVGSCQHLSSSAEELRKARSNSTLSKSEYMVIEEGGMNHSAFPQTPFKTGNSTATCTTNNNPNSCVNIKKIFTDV
# Assay: cell-based or functional assay
row,Binder,IC50 of inhibition of huKv1.3 currents (extrapolated)
1,B2,> 10000 nM
2,B3,> 10000 nM
3,B4,> 10000 nM
4,B1,> 10000 nM
5,B5,> 10000 nM

# Target: T2, human Kv 1.3
# Assay: cell-based or functional assay
# Remark: another data set of the same source
row,Binder,"IC50 of inhibition of huKv1.3 currents, QPatch whole-cell patch clamp, CHO cells"
1,B6,40 nM
2,B7,900 nM
3,B8,20 nM

# Target: T1, human Nav1.7
# Assay: cell-based or functional assay
# Remark: another data set of the same source
row,Binder,"IC50 of inhibition of Nav1.7 currents, QPatch, CHO cells"
1,B9,1400 nM
2,B10,1500 nM
3,B11,1100 nM
